The target of the assay is Streptococcus pyogenes (Spy) dCas9 (Streptococcus pyogenes) (UniProt Q99ZW2). As to the kind of experiment: cell-based or functional assay.

For AcrIIA4, the RFP fluorescence relative to a strain with no guide RNA (dCas9-based repression of a chromosomal RFP reporter in E. coli) was 85%.

Consider AcrIIA2 (LMOG_03147), for which the RFP fluorescence relative to a strain with no guide RNA (dCas9-based repression of a chromosomal RFP reporter in E. coli) stood at 25%.

For the origin of these results see patent US20200087354A1.
